Data taken from the supplement of paper PMC5998384.

How the values were obtained:
HeLa Kyoto [1] = test: solubility in G1/S (NP-40 vs SDS abundance) (log2 ratio); higher = more soluble; details: cell cycle stage: G1/S
HeLa Kyoto [2] = test: melting temperature (median over replicates), in situ; higher = more thermally stable
HeLa Kyoto [3] = test: solubility change mitosis vs G1/S (difference of NP-40 vs SDS log2 ratios) (log2 ratio difference); higher = more soluble in mitosis
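For melting temperature (median over replicates), in situ in this document: HeLa Kyoto cells synchronized by double thymidine or nocodazole block, proteins quantified by TMT10plex mass spectrometry, three independent biological replicates.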
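For solubility change mitosis vs G1/S (difference of NP-40 vs SDS log2 ratios) in this document: synchronized HeLa Kyoto cells (double thymidine block for G1/S, nocodazole release for mitosis), protein amounts in NP-40 versus SDS lysates quantified by mass spectrometry, three biological replicates.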
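For solubility in G1/S (NP-40 vs SDS abundance) in this document: HeLa Kyoto cells arrested at G1/S by double thymidine block, proteins quantified by TMT10plex mass spectrometry in mild NP-40 versus SDS extracts, three biological replicates.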

Sequence	solubility in G1/S (log2) (HeLa Kyoto [1])	melting temperature (HeLa Kyoto [2]; cell cycle stage: mitosis) [°C]	solubility change mitosis (log2) (HeLa Kyoto [3])	melting temperature (HeLa Kyoto [2]; cell cycle stage: G1/S) [°C]
MSEAMDQPAGGPGNPRPGEGDDGSMEPGTCQELLHRLRELEAENSALAQANENQRETYERCLDEVANHVVQALLNQKDLREECIKLKKRVFDLERQNQMLSALFQQKLQLTTGSLPQIPLTPLQPPSEPPASPSLSSTEGPAAPLPLGHCAGQREVCWEQQLRPGGPGPPAAPPPALDALSPFLRKKAQILEVLRALEETDPLLLCSPATPWRPPGQGPGSPEPINGELCGPPQPEPSPWAPCLLLGPGNLGGLLHWERLLGGLGGEEDTGRPWGPSRGPPQAQGTSSGPNCAPGSSSSSSSDEAGDPNEAPSPDTLLGALARRQLNLGQLLEDTESYLQAFLAGAAGPLNGDHPGPGQSSSPDQAPPQLSKSKGLPKSAWGGGTPEAHRPGFGATSEGQGPLPFLSMFMGAGDAPLGSRPGHPHSSSQVKSKLQIGPPSPGEAQGPLLPSPARGLKFLKLPPTSEKSPSPGGPQLSPQLPRNSRIPCRNSGSDGSPSPLLARRGLGGGELSPEGAQGLPTSPSPCYTTPDSTQLRPPQSALSTTLSPGPVVSPCYENILDLSRSTFRGPSPEPPPSPLQVPTYPQLTLEVPQAPEVLRSPGVPPSPCLPESYPYGSPQEKSLDKAGSESPHPGRRTPGNSSKKPSQGSGRRPGDPGSTPLRDRLAALGKLKTGPEGALGSEKNGVPARPGTEKTRGPGKSGESAGDMVPSIHRPLEQLEAKGGIRGAVALGTNSLKQQEPGLMGDPGARVYSSHSMGARVDLEPVSPRSCLTKVELAKSRLAGALCPQVPRTPAKVPTSAPSLGKPNKSPHSSPTKLPSKSPTKVVPRPGAPLVTKESPKPDKGKGPPWADCGSTTAQSTPLVPGPTDPSQGPEGLAPHSAIEEKVMKGIEENVLRLQGQERAPGAEVKHRNTSSIASWFGLKKSKLPALNRRTEATKNKEGAGGGSPLRREVKMEARKLEAESLNISKLMAKAEDLRRALEEEKAYLSSRARPRPGGPAPGPNTGLGQVQGQLAGMYQGADTFMQQLLNRVDGKELPSKSWREPKPEYGDFQPVSSDPKSPWPACGPRNGLVGPLQGCGKPPGKPSSEPGRREEMPSEDSLAEPVPTSHFTACGSLTRTLDSGIGTFPPPDHGSSGTPSKNLPKTKPPRLDPPPGVPPARPPPLTKVPRRAHTLEREVPGIEELLVSGRHPSMPAFPALLPAAPGHRGHETCPDDPCEDPGPTPPVQLAKNWTFPNTRAAGSSSDPLMCPPRQLEGLPRTPMALPVDRKRSQEPSRPSPTPQGPPFGGSRTPSTSDMAEEGRVASGGPPGLETSESLSDSLYDSLSSCGSQG [NCKAP5L]	0.0838	50.4	-0.128	
MSEVSCKKRDDYLEWPEYFMAVAFLSAQRSKDPNSQVGACIVNSENKIVGIGYNGMPNGCSDDVLPWRRTAENKLDTKYPYVCHAELNAIMNKNSTDVKGCSMYVALFPCNECAKLIIQAGIKEVIFMSDKYHDSDEATAARLLFNMAGVTFRKFIPKCSKIVIDFDSINSRPSQKLQ [DCTD]	0.419	58.5	0.0667	59.8
MSGIKRTIKETDPDYEDVSVALPNKRHKAIENSARDAAVQKIETIIKEQFALEMKNKEHEIEVIDQRLIEARRMMDKLRACIVANYYASAGLLKVSEGSKTCDTMVFNHPAIKKFLESPSRSSSPANQRAETPSANHSESDSLSQHNDFLSDKDNNSNMDIEERLSNNMEQRPSRNTGRDTSRITGSHKTEQRNADLTDETSRLFVKKTIVVGNVSKYIPPDKREENDQSTHKWMVYVRGSRREPSINHFVKKVWFFLHPSYKPNDLVEVREPPFHLTRRGWGEFPVRVQVHFKDSQNKRIDIIHNLKLDRTYTGLQTLGAETVVDVELHRHSLGEDCIYPQSSESDISDAPPSLPLTIPAPVKASSPIKQSHEPVPDTSVEKGFPASTEAERHTPFYALPSSLERTPTKMTTSQKVTFCSHGNSAFQPIASSCKIVPQSQVPNPESPGKSFQPITMSCKIVSGSPISTPSPSPLPRTPTSTPVHVKQGTAGSVINNPYVIMDKQPGQVIGATTPSTGSPTNKISTASQVSQGTGSPVPKIHGSSFVTSTVKQEDSLFASMPPLCPIGSHPKVQSPKPITGGLGAFTKVIIKQEPGEAPHVPATGAASQSPLPQYVTVKGGHMIAVSPQKQVITPGEGIAQSAKVQPSKVVGVPVGSALPSTVKQAVAISGGQILVAKASSSVSKAVGPKQVVTQGVAKAIVSGGGGTIVAQPVQTLTKAQVTAAGPQKSGSQGSVMATLQLPATNLANLANLPPGTKLYLTTNSKNPSGKGKLLLIPQGAILRATNNANLQSGSAASGGSGAGGGGGGGGGGGSGSGGGGSTGGGGGTAGGGTQSTAGPGGISQHLTYTSYILKQTPQGTFLVGQPSPQTSGKQLTTGSVVQGTLGVSTSSAQGQQTLKVISGQKTTLFTQAAHGGQASLMKISDSTLKTVPATSQLSKPGTTMLRVAGGVITTATSPAVALSANGPAQQSEGMAPVSSSTVSSVTKTSGQQQVCVSQATVGTCKAATPTVVSATSLVPTPNPISGKATVSGLLKIHSSQSSPQQAVLTIPSQLKPLSVNTSGGVQTILMPVNKVVQSFSTSKPPAILPVAAPTPVVPSSAPAAVAKVKTEPETPGPSCLSQEGQTAVKTEESSELGNYVIKIDHLETIQQLLTAVVKKIPLITAKSEDASCFSAKSVEQYYGWNIGKRRAAEWQRAMTMRKVLQEILEKNPRFHHLTPLKTKHIAHWCRCHGYTPPDPESLRNDGDSIEDVLTQIDSEPECPSSFSSADNLCRKLEDLQQFQKREPENEEEVDILSLSEPVKINIKKEQEEKQEEVKFYLPPTPGSEFIGDVTQKIGITLQPVALHRNVYASVVEDMILKATEQLVNDILRQALAVGYQTASHNRIPKEITVSNIHQAICNIPFLDFLTNKHMGILNEDQ [YEATS2]	-0.495	49.7	0.161	51.4
MSGSLGRAAAALLRWGRGAGGGGLWGPGVRAAGSGAGGGGSAEQLDALVKKDKVVVFLKGTPEQPQCGFSNAVVQILRLHGVRDYAAYNVLDDPELRQGIKDYSNWPTIPQVYLNGEFVGGCDILLQMHQNGDLVEELKKLGIHSALLDEKKDQDSK [GLRX5]	-0.00395	53	-0.0285	53.9
MSRLIVKNLPNGMKEERFRQLFAAFGTLTDCSLKFTKDGKFRKFGFIGFKSEEEAQKAQKHFNKSFIDTSRITVEFCKSFGDPAKPRAWSKHAQKPSQPKQPPKDSTTPEIKKDEKKKKVAGQLEKLKEDTEFQEFLSVHQRRAQAATWANDGLDAEPSKGKSKPASDYLNFDSDSGQESEEEGAGEDLEEEASLEPKAAVQKELSDMDYLKSKMVKAGSSSSSEEEESEDEAVHCDEGSEAEEEDSSATPVLQERDSKGAGQEQGMPAGKKRPPEARAETEKPANQKEPTTCHTVKLRGAPFNVTEKNVMEFLAPLKPVAIRIVRNAHGNKTGYIFVDFSNEEEVKQALKCNREYMGGRYIEVFREKNVPTTKGAPKNTTKSWQGRILGENEEEEDLAESGRLFVRNLPYTSTEEDLEKLFSKYGPLSELHYPIDSLTKKPKGFAFITFMFPEHAVKAYSEVDGQVFQGRMLHVLPSTIKKEASEDASALGSSSYKKKKEAQDKANSASSHNWNTLFMGPNAVADAIAQKYNATKSQVFDHETKGSVAVRVALGETQLVQEVRRFLIDNGVSLDSFSQAAAERSKTVILVKNLPAGTLAAQLQETFGHFGSLGRVLLPEGGITAIVEFLEPLEARKAFRHLAYSKFHHVPLYLEWAPVGVFSSTAPQKKKLQDTPSEPMEKDPAEPETVPDGETPEDENPTEEGADNSSAKMEEEEEEEEEEEESLPGCTLFIKNLNFDTTEEKLKEVFSKVGTVKSCSISKKKNKAGVLLSMGFGFVEYRKPEQAQKALKQLQGHVVDGHKLEVRISERATKPAVTLARKKQVPRKQTTSKILVRNIPFQAHSREIRELFSTFGELKTVRLPKKMTGTGTHRGFGFVDFLTKQDAKRAFNALCHSTHLYGRRLVLEWADSEVTLQALRRKTAAHFHEPPKKKRSVVLDEILEQLEGSDSDSEEQTLQL [RBM19]	-1.27	51.2	0.706	48.5
MSRQTTSVGSSCLDLWREKNDRLVRQAKVAQNSGLTLRRQQLAQDALEGLRGLLHSLQGLPAAVPVLPLELTVTCNFIILRASLAQGFTEDQAQDIQRSLERVLETQEQQGPRLEQGLRELWDSVLRASCLLPELLSALHRLVGLQAALWLSADRLGDLALLLETLNGSQSGASKDLLLLLKTWSPPAEELDAPLTLQDAQGLKDVLLTAFAYRQGLQELITGNPDKALSSLHEAASGLCPRPVLVQVYTALGSCHRKMGNPQRALLYLVAALKEGSAWGPPLLEASRLYQQLGDTTAELESLELLVEALNVPCSSKAPQFLIEVELLLPPPDLASPLHCGTQSQTKHILASRCLQTGRAGDAAEHYLDLLALLLDSSEPRFSPPPSPPGPCMPEVFLEAAVALIQAGRAQDALTLCEELLSRTSSLLPKMSRLWEDARKGTKELPYCPLWVSATHLLQGQAWVQLGAQKVAISEFSRCLELLFRATPEEKEQGAAFNCEQGCKSDAALQQLRAAALISRGLEWVASGQDTKALQDFLLSVQMCPGNRDTYFHLLQTLKRLDRRDEATALWWRLEAQTKGSHEDALWSLPLYLESYLSWIRPSDRDAFLEEFRTSLPKSCDL [FANCG]	0.138	48	-0.0579	49.9
MSVAGGEIRGDTGGEDTAAPGRFSFSPEPTLEDIRRLHAEFAAERDWEQFHQPRNLLLALVGEVGELAELFQWKTDGEPGPQGWSPRERAALQEELSDVLIYLVALAARCRVDLPLAVLSKMDINRRRYPAHLARSSSRKYTELPHGAISEDQAVGPADIPCDSTGQTST [DCTPP1]	-0.0125	50.5	0.646	54.1
MSYYLSSENHLDPGPIYMRENGQLHMVNLALDGVRSSLQKPRPFRLFPKGFSVELCMNREDDTARKEKTDHFIFTYTREGNLRYSAKSLFSLVLGFISDNVDHIDSLIGFPEQIAEKLFSAAEARQKFTEPGAGLRALQKFTEAYGSLVLCSLCLRNRYLVISEKLEEIKSFRELTCLDLSCCKLGDEHELLEHLTNEALSSVTQLHLKDNCLSDAGVRKMTAPVRVMKRGLENLTLLDLSCNPEITDAGIGYLFSFRKLNCLDISGTGLKDIKTVKHKLQTHIGLVHSKVPLKEFDHSNCKTEGWADQIVLQWERVTAEAVKPRETSEPRAAAQRFYGKRSRAEAPLKCPLADTHMNSSEKLQFYKEKAPDCHGPVLKHEAISSQESKKSKKRPFEESETEQNNSSQPSKQKYVCLAVEDWDLLNSY [LRRC42]	-0.0147	50.9	-0.111	49
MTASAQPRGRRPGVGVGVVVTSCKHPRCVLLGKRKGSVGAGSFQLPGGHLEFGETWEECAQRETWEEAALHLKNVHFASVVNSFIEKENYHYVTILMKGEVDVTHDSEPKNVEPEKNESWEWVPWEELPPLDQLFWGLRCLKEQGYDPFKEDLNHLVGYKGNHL [NUDT15]	0.425	52.3	-0.3	53.4
MTGKKSSREKRRKRSSQEAAAALAAPDIVPALASGSSGSTSGCGSAGGCGSVSCCGNANFSGSVTGGGSGGSCWGGSSVERSERRKRRSTDSSSVSGSLQQETKYILPTLEKELFLAEHSDLEEGGLDLTVSLKPVSFYISDKKEMLQQCFCIIGEKKLQKMLPDVLKNCSIEEIKKLCQEQLELLSEKKILKILEGDNGMDSDMEEEADDGSKMGSDLVSQQDICIDSASSVRENKQPEGLELKQGKGEDSDVLSINADAYDSDIEGPCNEEAAAPEAPENTVQSEAGQIDDLEKDIEKSVNEILGLAESSPNEPKAATLAVPPPEDVQPSAQQLELLELEMRARAIKALMKAGDIKKPA [CAAP1]	-0.326	51.8	0.56	47.3
MTKIKADPDGPEAQAEACSGERTYQELLVNQNPIAQPLASRRLTRKLYKCIKKAVKQKQIRRGVKEVQKFVNKGEKGIMVLAGDTLPIEVYCHLPVMCEDRNLPYVYIPSKTDLGAAAGSKRPTCVIMVKPHEEYQEAYDECLEEVQSLPLPL [NHP2]	-1.1	54.1	1.21	55.3
MTTSQKHRDFVAEPMGEKPVGSLAGIGEVLGKKLEERGFDKAYVVLGQFLVLKKDEDLFREWLKDTCGANAKQSRDCFGCLREWCDAFL [BANF1]	-1.48	52.2	1.93	
